# Test results: article PMC3074120 (Nucleic Acids Research, 2010)
# Biological target: GST-PIWI (PIWI domain of Ago2) (human, UniProt Q9UKV8 517-818)
# Experiment: pull-down
# Sequence of GST-PIWI (PIWI domain of Ago2) (Q9UKV8 517-818): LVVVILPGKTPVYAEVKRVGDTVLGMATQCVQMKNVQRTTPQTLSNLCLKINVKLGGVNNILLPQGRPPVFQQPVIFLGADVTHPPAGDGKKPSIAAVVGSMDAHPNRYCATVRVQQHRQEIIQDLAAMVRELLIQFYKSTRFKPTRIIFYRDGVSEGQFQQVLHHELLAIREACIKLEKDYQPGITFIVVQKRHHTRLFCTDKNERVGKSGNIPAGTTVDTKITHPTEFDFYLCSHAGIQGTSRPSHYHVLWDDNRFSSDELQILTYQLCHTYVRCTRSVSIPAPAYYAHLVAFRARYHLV
row,Binder,percent pull-down (of input) [%]
1,"NHA-Δ5 (GW182 fragment Δ5, amino acids 1670-1962) (domain or fragment) TSAWSSIRASNYNVPLSSTAQSTSARNSDSKLTWSPGSVTNTSLAHELWKVPLPPKNITAPSRPPPGLTGQKPPLSTWDNSPLRIGGGWGNSDARYTPGSSWGESSSGRITNWLVLKNLTPQIDGSTLRTLCMQHGPLITFHLNLPHGNALVRYSSKEEVVKAQKSLHMCVLGNTTILAEFASEEEISRFFAQSQSLTPSPGWQSLGSSQSRLGSLDCSHSFSSRTDLNHWNGAGLSGTNCGDLHGTSLWGTPHYSTSLWGPPSSSDPRGISSPSPINAFLSVDHLGGGGESM",4.2
2,"NHA-Δ12 (GW182 fragment Δ12, amino acids 896-1219) (domain or fragment) FTWGNNINPNNSSGWDESSKPTPSQGWGDPPKSNQSLGWGDSSKPVSSPDWNKQQDIVGSWGIPPATGKPPGTGWLGGPIPAPAKEEEPTGWEEPSPESIRRKMEIDDGTSAWGDPSKYNYKNVNMWNKNVPNGNSRSDQQAQVHQLLTPASAISNKEASSGSGWGEPWGEPSTPATTVDNGTSAWGKPIDSGPSWGEPIAAASSTSTWGSSSVGPQALSKSGPKSMQDGWCGDDMPLPGNRPTGWEEEEDVEIGMWNSNSSQELNSSLNWPPYTKKMSSKGLSGKKRRRERGMMKGGNKQEEAWINPFVKQFSNISFSRDSPE",18
3,"NHA-Δ12a (GW182 fragment Δ12a, amino acids 896-1045) (domain or fragment) FTWGNNINPNNSSGWDESSKPTPSQGWGDPPKSNQSLGWGDSSKPVSSPDWNKQQDIVGSWGIPPATGKPPGTGWLGGPIPAPAKEEEPTGWEEPSPESIRRKMEIDDGTSAWGDPSKYNYKNVNMWNKNVPNGNSRSDQQAQVHQLLTP",0.2
4,"NHA-Δ10 (GW182 fragment Δ10, amino acids 655-1343) (domain or fragment) QTNEQSSVWAKTGGTVESDGSTESTGRLEEKGTGESQSRDRRKIDQHTLLQSIVNRTDLDPRVLSNSGWGQTPIKQNTAWDTETSPRGERKTDNGTEAWGSSATQTFNSGACIDKTSPNGNDTSSVSGWGDPKPALRWGDSKGSNCQGGWEDDSAATGMVKSNQWGNCKEEKAAWNDSQKNKQGWGDGQKSSQGWSVSASDNWGETSRNNHWGEANKKSSSGGSDSDRSVSGWNELGKTSSFTWGNNINPNNSSGWDESSKPTPSQGWGDPPKSNQSLGWGDSSKPVSSPDWNKQQDIVGSWGIPPATGKPPGTGWLGGPIPAPAKEEEPTGWEEPSPESIRRKMEIDDGTSAWGDPSKYNYKNVNMWNKNVPNGNSRSDQQAQVHQLLTPASAISNKEASSGSGWGEPWGEPSTPATTVDNGTSAWGKPIDSGPSWGEPIAAASSTSTWGSSSVGPQALSKSGPKSMQDGWCGDDMPLPGNRPTGWEEEEDVEIGMWNSNSSQELNSSLNWPPYTKKMSSKGLSGKKRRRERGMMKGGNKQEEAWINPFVKQFSNISFSRDSPEENVQSNKMDLSGGMLQDKRMEIDKHSLNIGDYNRTVGKGPGSRPQISKESSMERNPYFDKDGIVADESQNMQFMSSQSMKLPPSNSALPNQALGSIAGLGMQNLNSVRQNGNPSMFGVGNTAAQ",≤ 85
